Measurements from patent publication US20160237156A1 (CALIFORNIA INSTITUTE FOR BIOMEDICAL RESEARCH, published 2016).

T1: Human neutrophil elastase (Elastin Products Company, Inc.) (human, UniProt P08246 30-247, limits assumed)
T1 sequence (looked up): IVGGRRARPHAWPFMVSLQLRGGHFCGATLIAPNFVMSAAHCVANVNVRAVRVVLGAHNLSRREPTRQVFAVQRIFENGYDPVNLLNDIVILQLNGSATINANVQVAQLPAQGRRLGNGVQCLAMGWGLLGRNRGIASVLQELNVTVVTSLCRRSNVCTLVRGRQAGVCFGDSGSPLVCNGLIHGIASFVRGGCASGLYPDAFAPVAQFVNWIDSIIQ

B1: BLV1H12-beta BCCX2 HC 4 IgG (antibody, V domains shown)
VH: ASGFSLSDKAVGWVRQAPGKALEWLGSIDETKKYQSYRKCRGGRRWCYQKSYTYNYETGYNPGLKSRLSITKDNSKSQVSLSVSSVTTEDSATYYCTSVHQGGGGSWHVDVWGQGLLVTVSS
VL: QAVLNQPSSVSGSLGQRVSITCSGSSSNVGNGYVSWYQLIPGSAPRTLIYGDTSRASGVPDRFSGSRSGNTATLTISSLQAEDEADYFCASAEDSSSNAVFGSGTTLTVLG
notes: Peptide grafted into CDRH2; also called bAb-AC4; BVL1H12-beta BCCX2 HC 4
B2: BLV1H12-beta BCCX2 HC 3 IgG (antibody, V domains shown)
VH: QVQLRESGPSLVKPSQTLSLTCTASGFSLSDKAVGWVRQAPGKALEWLGSIDTGGNTGYNPGLKSRLSITKDNSKSQVSLSVSSVTTEDSATYYCTSVHQETKKYQSYRKCRGGNGRRWCYQKSYTYNYEWHVDVWGQGLLVTVSS
VL: B1 VL
notes: Bovine-human chimera with human IgG1 Fc; also called bAb-AC3
B3: BLV1H12-beta BCCX2 HC 2 IgG (antibody, V domains shown)
VH: QVQLRESGPSLVKPSQTLSLTCTASGFSLSDKAVGWVRQAPGKALEWLGSIDTGGNTGYNPGLKSRLSITKDNSKSQVSLSVSSVTTEDSATYYCTSVHQETKKYQSYRKCRGPRRWCYQKSYTYNYEWHVDVWGQGLLVTVSS
VL: B1 VL
notes: Bovine-human chimera with human IgG1 Fc; also called bAb-AC2
B4: trastuzumab-beta BCCX2 HC medium (antibody, human IgG1, kappa, V domains shown)
VH: EVQLVESGGGLVQPGGSLRLSCAASGFNIKDTYIHWVRQAPGKGLEWVARIYPTNGYTRYADSVKGRFTISADTSKNTAYLQMNSLRAEDTAVYYCSRETKKYRKCRGGRRWCYQKYNYEDYWGQGTLVTVSS
VL: not shown
notes: also called HMCX
B5: trastuzumab-beta BCCX2 HC long (antibody, human IgG1, kappa, V domains shown)
VH: EVQLVESGGGLVQPGGSLRLSCAASGFNIKDTYIHWVRQAPGKGLEWVARIYPTNGYTRYADSVKGRFTISADTSKNTAYLQMNSLRAEDTAVYYCSRETKKYQSYRKCRGGRRWCYQKSYTYNYEDYWGQGTLVTVSS
VL: not shown
notes: also called HLCX
B6: Human BVK-beta HEI HC 6 (Fab, V domains shown)
VH: QVQLQESGPGLVRPSQTLSLTCTVSGFSLTGYGVNWVRQPPGRGLEWIGMIWGDGNTDYNSALKSRVTMLKDTSKNQFSLRLSSVTAADTAVYYCTSVHQEMCTASIPPQCYEWHVDVWGQGLLVTVSS
VL: DIQMTQSPSSLSASVGDRVTITCRASGNIHNYLAWYQQKPGKAPKLLIYYTTTLADGVPSRFSGSGSGTDYTFTISSLQPEDIATYYCQHFWSTPRTFGQGTKVEIKR
notes: also called HEI fusion protein
B7: Human BVK-beta HEI HC 9 (Fab, V domains shown)
VH: QVQLQESGPGLVRPSQTLSLTCTVSGFSLTGYGVNWVRQPPGRGLEWIGMIWGDGNTDYNSALKSRVTMLKDTSKNQFSLRLSSVTAADTAVYYCTSVHQETKKMCTASIPPQCYYNYEWHVDVWGQGLLVTVSS
VL: B6 VL
notes: as for B6
B8: Human BVK-beta HEI HC 8 (Fab, V domains shown)
VH: QVQLQESGPGLVRPSQTLSLTCTVSGFSLTGYGVNWVRQPPGRGLEWIGMIWGDGNTDYNSALKSRVTMLKDTSKNQFSLRLSSVTAADTAVYYCTSVHQETKMCTASIPPQCYNYEWHVDVWGQGLLVTVSS
VL: B6 VL
notes: as for B6

Legend:
CXCR4 = CXCR4 (human, UniProt P61073 1-352); test: cell-based or functional assay
CXCR4, sequence (P61073 whole entry): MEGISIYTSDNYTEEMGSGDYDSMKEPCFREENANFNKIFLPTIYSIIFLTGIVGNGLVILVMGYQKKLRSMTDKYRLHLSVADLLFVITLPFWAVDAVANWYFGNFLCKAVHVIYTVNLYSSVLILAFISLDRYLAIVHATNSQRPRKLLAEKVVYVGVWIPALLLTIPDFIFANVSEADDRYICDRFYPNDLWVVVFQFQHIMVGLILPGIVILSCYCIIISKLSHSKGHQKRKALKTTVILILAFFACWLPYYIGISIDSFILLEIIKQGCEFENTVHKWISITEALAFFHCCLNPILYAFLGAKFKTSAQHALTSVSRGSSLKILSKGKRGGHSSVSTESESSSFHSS

[1] = target: T2, SNAP-tag-CXCR4 (Tag-lite labeled CXCR4 cells, Cisbio Bioassays) (UniProt P61073 1-352, Tag-lite label on the SNAP-tag); test: Tag-lite HTRF competition with 50 nM fluorescent SDF-1, Cheng-Prusoff
T2 construct: whole, on cells; Bought labelled cells; also called Tag-lite CXCR4 receptor; labeled SNAP-tag-CXCR4; not shown: SNAP-tag of the bought Tag-lite cells
T2 sequence (P61073 whole entry): as above
Protocol: (§1) Briefly, 10⁶ Tag-lite labeled CXCR4 cells were thawed at 37° C., centrifuged for 5 min at 1200 g, and re-suspended in 2.7 ml 1×Tag-lite buffer after removal of supernatant.

[2] = target: T2, SNAP-tag-CXCR4 (Tag-lite labeled CXCR4 …); test: Tag-lite HTRF competition with 50 nM fluorescent SDF-1 on Tag-lite labeled CXCR4 cells
Protocol: as §1

[3] = target: T1, Human neutrophil elastase (Elastin …); test: elastase inhibition assay with fluorogenic substrate MeOSuc-AAPV-AMC (Example 28); y axis read as residual activity

Binder	inhibition of SDF-1 induced migration of Ramos cells, EC50 (CXCR4)	Ki [1]	IC50 [2]	binding result [3]	IC50 (read off the curve) [3]
B1	3.2 nM	0.92 nM	4.16 nM		
B2		19.8 nM	89.3 nM		
B3		5.39 nM	24.4 nM		
B4		25.1 nM	113 nM		
B5		2.07 nM	9.36 nM		
B6				binds	
B7					~40 nM
B8				binds	
